Experimental data published in patent US20250381244A1.

Biological target: Neuropilin-2 (human NRP-2), endogenous on U87MG, Jurkat and HUVEC cells (human) (UniProt O60462)
Assay: cell-based or functional assay

Sequence of Neuropilin-2 (human NRP-2), endogenous on U87MG, Jurkat and HUVEC cells (human) (O60462 21-931 limits assumed): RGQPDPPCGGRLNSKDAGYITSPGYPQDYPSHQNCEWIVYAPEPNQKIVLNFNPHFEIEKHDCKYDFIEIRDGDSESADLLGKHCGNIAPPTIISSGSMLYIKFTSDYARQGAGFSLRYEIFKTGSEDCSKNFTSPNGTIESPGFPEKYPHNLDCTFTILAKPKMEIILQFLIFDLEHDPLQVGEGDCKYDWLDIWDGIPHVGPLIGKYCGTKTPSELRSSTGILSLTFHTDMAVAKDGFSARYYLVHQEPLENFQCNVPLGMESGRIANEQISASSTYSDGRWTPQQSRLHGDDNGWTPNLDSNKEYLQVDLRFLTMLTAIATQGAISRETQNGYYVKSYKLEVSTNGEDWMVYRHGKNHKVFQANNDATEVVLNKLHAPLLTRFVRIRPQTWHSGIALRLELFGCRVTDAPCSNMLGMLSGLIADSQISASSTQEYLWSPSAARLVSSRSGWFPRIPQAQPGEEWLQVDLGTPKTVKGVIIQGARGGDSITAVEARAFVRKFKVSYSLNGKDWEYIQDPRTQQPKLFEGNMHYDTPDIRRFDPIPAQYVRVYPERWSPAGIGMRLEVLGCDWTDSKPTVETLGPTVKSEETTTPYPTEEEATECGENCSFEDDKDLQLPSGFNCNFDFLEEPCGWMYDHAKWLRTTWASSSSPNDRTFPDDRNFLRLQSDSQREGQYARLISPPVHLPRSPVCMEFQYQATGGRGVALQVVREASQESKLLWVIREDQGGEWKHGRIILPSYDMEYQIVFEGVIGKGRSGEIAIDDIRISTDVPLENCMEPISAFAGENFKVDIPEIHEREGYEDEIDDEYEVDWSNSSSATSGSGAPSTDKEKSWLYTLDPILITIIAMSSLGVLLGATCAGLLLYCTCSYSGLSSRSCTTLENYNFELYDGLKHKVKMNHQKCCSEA

inhibition of DFO-induced VEGF promoter luciferase activity, U87MG cells: 43% | inhibition of stress fiber formation (phalloidin staining), pcDNA3.1 control vector transfected U87MG cells: 90% | reduction of hypoxia (1% O2)-induced VEGF promoter luciferase activity, U87MG cells: 44% | suppression of RhoA activity (rhotekin pulldown), control pcDNA3.1-transfected U87MG cells: 88%
Substance: Human recombinant SEMA3F (full-length, His-Myc-tagged human SEMA3F, secreted by 293T cells and purified) (from UniProt Q13275 20-785) (ligand)
